Patent US20150203577A1 (Chugai, published 2015)

T1: mouse FcγRII (mouse, UniProt P08101 30-210)
T1 construct: also called mFcγRII; mFcgRII
T1 sequence: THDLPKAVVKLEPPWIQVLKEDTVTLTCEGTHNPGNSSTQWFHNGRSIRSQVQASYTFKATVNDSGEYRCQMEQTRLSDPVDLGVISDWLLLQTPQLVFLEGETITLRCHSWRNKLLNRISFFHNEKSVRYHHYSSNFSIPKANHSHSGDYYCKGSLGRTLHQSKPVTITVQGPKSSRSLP

T2: mouse FcγRIII (mouse, UniProt P08508 31-215)
T2 construct: also called mFcγRIII; mFcgRIII
T2 chain: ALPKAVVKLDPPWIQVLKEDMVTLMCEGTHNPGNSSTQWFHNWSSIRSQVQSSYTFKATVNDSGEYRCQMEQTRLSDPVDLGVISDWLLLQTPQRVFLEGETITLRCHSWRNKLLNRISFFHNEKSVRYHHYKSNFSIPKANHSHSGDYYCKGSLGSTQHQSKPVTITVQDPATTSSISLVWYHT


How the values were obtained:
[1] = target: T1, mouse FcγRII; test: SPR Biacore 4000, KD ratio
Method: (§1) Each altered antibody was analyzed for its interaction with each Fcγ receptor prepared above using Biacore T100 (GE Healthcare Japan Corp.), Biacore T200 (GE Healthcare Japan Corp.), Biacore A100, or Biacore 4000. The running buffer used was HBS-EP+ (GE Healthcare Japan Corp.). The assay temperature was set to 25° C. The sensor chips used were chips prepared by immobilizing Protein L (ACTIGEN or BioVision) onto Series S Sensor Chip CM5 (GE Healthcare Japan Corp.) or Series S Sensor Chip CM4 (GE Healthcare Japan Corp.) by the amine coupling method.
(§2) In order to calculate the KD value of each altered antibody for FcγR, kinetic analysis was conducted according to the following method: first, the antibody of interest was captured onto any of these chips and allowed to interact with mFcγR diluted with a running buffer. For the obtained sensorgram, the assay results were globally fit into the 1:1 Langmuir binding model using Biacore Evaluation Software to calculate an association rate constant ka (L/mol/s) and a dissociation rate constant kd (1/s). From these values, the dissociation constant KD (mol/L) was calculated.

[2] = target: T2, mouse FcγRIII; test: SPR Biacore 4000, KD ratio
Method: as §1, §2

Binder	relative mFcγRII-binding activity (mIgG1 = 1) [1] [fold]	relative mFcγRIII-binding activity (mIgG1 = 1) [2] [fold]
MB052 (antibody, mouse IgG1, kappa, copies: 2 + 2) heavy: QVQLQESGPGLVKPSETLSLTCAVSGHSISHDHAWSWVRQPPGEGLEWIGFISYSGITNYNPSLQGRVTISRDNSKNTLYLQMNSLRAEDTAVYYCARSLARTTAMDYWGEGTLVTVSSAKTTPPSVYPLAPGSAAQTNSMVTLGCLVKGYFPEPVTVTWNSGSLSSGVHTFPAVLQSDLYTLSSSVTVPSSTWPSETVTCNVAHPASSTKVDKKIVPRDCGCKPCICTVVEVSSVFIFPPKPKDVLTITLTPKVTCVVVDISKDDPEVQFSWFVDDVEVHTAQTQPREEQFNSTFRSVSELPIMHQDWLNGKEFKCRVNSAAFPAPIEKTISKTKGRPKAPQVYTIPPPKEQMAKDKVSLTCMITDFFPEDITVEWQWNGQPAENYKNTQPIMDTDGSYFVYSKLNVQKSNWEAGNTFTCSVLHEGLHNHHTEKSLSHSPGK light: not shown	1.36	1.2
MB053 (antibody, mouse IgG1, kappa, copies: 2 + 2) heavy: QVQLQESGPGLVKPSETLSLTCAVSGHSISHDHAWSWVRQPPGEGLEWIGFISYSGITNYNPSLQGRVTISRDNSKNTLYLQMNSLRAEDTAVYYCARSLARTTAMDYWGEGTLVTVSSAKTTPPSVYPLAPGSAAQTNSMVTLGCLVKGYFPEPVTVTWNSGSLSSGVHTFPAVLQSDLYTLSSSVTVPSSTWPSETVTCNVAHPASSTKVDKKIVPRDCGCKPCICTVWEVSSVFIFPPKPKDVLTITLTPKVTCVVVDISKDDPEVQFSWFVDDVEVHTAQTQPREEQFNSTFRSVSELPIMHQDWLNGKEFKCRVNSAAFPAPIEKTISKTKGRPKAPQVYTIPPPKEQMAKDKVSLTCMITDFFPEDITVEWQWNGQPAENYKNTQPIMDTDGSYFVYSKLNVQKSNWEAGNTFTCSVLHEGLHNHHTEKSLSHSPGK light: not shown	1.36	1.02
MB102 (antibody, mouse IgG1, kappa, copies: 2 + 2) heavy: QVQLQESGPGLVKPSETLSLTCAVSGHSISHDHAWSWVRQPPGEGLEWIGFISYSGITNYNPSLQGRVTISRDNSKNTLYLQMNSLRAEDTAVYYCARSLARTTAMDYWGEGTLVTVSSAKTTPPSVYPLAPGSAAQTNSMVTLGCLVKGYFPEPVTVTWNSGSLSSGVHTFPAVLQSDLYTLSSSVTVPSSTWPSETVTCNVAHPASSTKVDKKIVPRDCGCKPCICTVPEVPSVFIFPPKPKDVLTITLTPKVTCVVVDISKDDPEVQFSWFVDDVEVHTAQTQPREEQFNSTFRSVSELPIMHQDWLNGKEFKCRVNSAAFPAPIEKTISKTKGRPKAPQVYTIPPPKEQMAKDKVSLTCMITDFFPEDITVEWQWNGQPAENYKNTQPIMDTDGSYFVYSKLNVQKSNWEAGNTFTCSVLHEGLHNHHTEKSLSHSPGK light: not shown	2.62	2.37
MB093 (antibody, mouse IgG1, kappa, copies: 2 + 2) heavy: QVQLQESGPGLVKPSETLSLTCAVSGHSISHDHAWSWVRQPPGEGLEWIGFISYSGITNYNPSLQGRVTISRDNSKNTLYLQMNSLRAEDTAVYYCARSLARTTAMDYWGEGTLVTVSSAKTTPPSVYPLAPGSAAQTNSMVTLGCLVKGYFPEPVTVTWNSGSLSSGVHTFPAVLQSDLYTLSSSVTVPSSTWPSETVTCNVAHPASSTKVDKKIVPRDCGCKPCICTVPEVESVFIFPPKPKDVLTITLTPKVTCVVVDISKDDPEVQFSWFVDDVEVHTAQTQPREEQFNSTFRSVSELPIMHQDWLNGKEFKCRVNSAAFPAPIEKTISKTKGRPKAPQVYTIPPPKEQMAKDKVSLTCMITDFFPEDITVEWQWNGQPAENYKNTQPIMDTDGSYFVYSKLNVQKSNWEAGNTFTCSVLHEGLHNHHTEKSLSHSPGK light: not shown	2.09	0.56
MB054 (antibody, mouse IgG1, kappa, copies: 2 + 2) heavy: QVQLQESGPGLVKPSETLSLTCAVSGHSISHDHAWSWVRQPPGEGLEWIGFISYSGITNYNPSLQGRVTISRDNSKNTLYLQMNSLRAEDTAVYYCARSLARTTAMDYWGEGTLVTVSSAKTTPPSVYPLAPGSAAQTNSMVTLGCLVKGYFPEPVTVTWNSGSLSSGVHTFPAVLQSDLYTLSSSVTVPSSTWPSETVTCNVAHPASSTKVDKKIVPRDCGCKPCICTVYEVSSVFIFPPKPKDVLTITLTPKVTCVVVDISKDDPEVQFSWFVDDVEVHTAQTQPREEQFNSTFRSVSELPIMHQDWLNGKEFKCRVNSAAFPAPIEKTISKTKGRPKAPQVYTIPPPKEQMAKDKVSLTCMITDFFPEDITVEWQWNGQPAENYKNTQPIMDTDGSYFVYSKLNVQKSNWEAGNTFTCSVLHEGLHNHHTEKSLSHSPGK light: not shown	1.75	1.11

Results, then the binder that gave them:

relative mFcγRII-binding activity (mIgG1 = 1) [1] [fold]	relative mFcγRIII-binding activity (mIgG1 = 1) [2] [fold]	Binder
1.48	0.94	MB121 (antibody, mouse IgG1, kappa, copies: 2 + 2) heavy: QVQLQESGPGLVKPSETLSLTCAVSGHSISHDHAWSWVRQPPGEGLEWIGFISYSGITNYNPSLQGRVTISRDNSKNTLYLQMNSLRAEDTAVYYCARSLARTTAMDYWGEGTLVTVSSAKTTPPSVYPLAPGSAAQTNSMVTLGCLVKGYFPEPVTVTWNSGSLSSGVHTFPAVLQSDLYTLSSSVTVPSSTWPSETVTCNVAHPASSTKVDKKIVPRDCGCKPCICTVPEVSQVFIFPPKPKDVLTITLTPKVTCVVVDISKDDPEVQFSWFVDDVEVHTAQTQPREEQFNSTFRSVSELPIMHQDWLNGKEFKCRVNSAAFPAPIEKTISKTKGRPKAPQVYTIPPPKEQMAKDKVSLTCMITDFFPEDITVEWQWNGQPAENYKNTQPIMDTDGSYFVYSKLNVQKSNWEAGNTFTCSVLHEGLHNHHTEKSLSHSPGK light: not shown
1.27	1.05	MB103 (antibody, mouse IgG1, kappa, copies: 2 + 2) heavy: QVQLQESGPGLVKPSETLSLTCAVSGHSISHDHAWSWVRQPPGEGLEWIGFISYSGITNYNPSLQGRVTISRDNSKNTLYLQMNSLRAEDTAVYYCARSLARTTAMDYWGEGTLVTVSSAKTTPPSVYPLAPGSAAQTNSMVTLGCLVKGYFPEPVTVTWNSGSLSSGVHTFPAVLQSDLYTLSSSVTVPSSTWPSETVTCNVAHPASSTKVDKKIVPRDCGCKPCICTVPEVQSVFIFPPKPKDVLTITLTPKVTCVVVDISKDDPEVQFSWFVDDVEVHTAQTQPREEQFNSTFRSVSELPIMHQDWLNGKEFKCRVNSAAFPAPIEKTISKTKGRPKAPQVYTIPPPKEQMAKDKVSLTCMITDFFPEDITVEWQWNGQPAENYKNTQPIMDTDGSYFVYSKLNVQKSNWEAGNTFTCSVLHEGLHNHHTEKSLSHSPGK light: not shown
1.74	0.99	MB118 (antibody, mouse IgG1, kappa, copies: 2 + 2) heavy: QVQLQESGPGLVKPSETLSLTCAVSGHSISHDHAWSWVRQPPGEGLEWIGFISYSGITNYNPSLQGRVTISRDNSKNTLYLQMNSLRAEDTAVYYCARSLARTTAMDYWGEGTLVTVSSAKTTPPSVYPLAPGSAAQTNSMVTLGCLVKGYFPEPVTVTWNSGSLSSGVHTFPAVLQSDLYTLSSSVTVPSSTWPSETVTCNVAHPASSTKVDKKIVPRDCGCKPCICTVPEVSMVFIFPPKPKDVLTITLTPKVTCVVVDISKDDPEVQFSWFVDDVEVHTAQTQPREEQFNSTFRSVSELPIMHQDWLNGKEFKCRVNSAAFPAPIEKTISKTKGRPKAPQVYTIPPPKEQMAKDKVSLTCMITDFFPEDITVEWQWNGQPAENYKNTQPIMDTDGSYFVYSKLNVQKSNWEAGNTFTCSVLHEGLHNHHTEKSLSHSPGK light: not shown
1.58	0.94	MB126 (antibody, mouse IgG1, kappa, copies: 2 + 2) heavy: QVQLQESGPGLVKPSETLSLTCAVSGHSISHDHAWSWVRQPPGEGLEWIGFISYSGITNYNPSLQGRVTISRDNSKNTLYLQMNSLRAEDTAVYYCARSLARTTAMDYWGEGTLVTVSSAKTTPPSVYPLAPGSAAQTNSMVTLGCLVKGYFPEPVTVTWNSGSLSSGVHTFPAVLQSDLYTLSSSVTVPSSTWPSETVTCNVAHPASSTKVDKKIVPRDCGCKPCICTVPEVSYVFIFPPKPKDVLTITLTPKVTCVVVDISKDDPEVQFSWFVDDVEVHTAQTQPREEQFNSTFRSVSELPIMHQDWLNGKEFKCRVNSAAFPAPIEKTISKTKGRPKAPQVYTIPPPKEQMAKDKVSLTCMITDFFPEDITVEWQWNGQPAENYKNTQPIMDTDGSYFVYSKLNVQKSNWEAGNTFTCSVLHEGLHNHHTEKSLSHSPGK light: not shown
5.01	1.11	MB111 (antibody, mouse IgG1, kappa, copies: 2 + 2) heavy: QVQLQESGPGLVKPSETLSLTCAVSGHSISHDHAWSWVRQPPGEGLEWIGFISYSGITNYNPSLQGRVTISRDNSKNTLYLQMNSLRAEDTAVYYCARSLARTTAMDYWGEGTLVTVSSAKTTPPSVYPLAPGSAAQTNSMVTLGCLVKGYFPEPVTVTWNSGSLSSGVHTFPAVLQSDLYTLSSSVTVPSSTWPSETVTCNVAHPASSTKVDKKIVPRDCGCKPCICTVPEVSEVFIFPPKPKDVLTITLTPKVTCVVVDISKDDPEVQFSWFVDDVEVHTAQTQPREEQFNSTFRSVSELPIMHQDWLNGKEFKCRVNSAAFPAPIEKTISKTKGRPKAPQVYTIPPPKEQMAKDKVSLTCMITDFFPEDITVEWQWNGQPAENYKNTQPIMDTDGSYFVYSKLNVQKSNWEAGNTFTCSVLHEGLHNHHTEKSLSHSPGK light: not shown
